The results in this text go back to publication PMC3988174.

The target of assay [1] is atToc159 G-domain bait (Arabidopsis thaliana) (UniProt O81283). Nature of the assay: two-hybrid; pairwise split-ubiquitin yeast two-hybrid of isolated NubG-preys with Toc159G, Toc132G or Toc132AG bait in NMY51; growth on SD-LWHA (3-AT) and quantitative β-Gal assay, activity relative to a reference bait set to 100%.
In assay [2] the target is atToc132 A- plus G-domains bait (Arabidopsis thaliana) (UniProt Q9SLF3). The assay is described as above.
Chain of atToc132 A- plus G-domains bait (Arabidopsis thaliana) (Q9SLF3 1-794): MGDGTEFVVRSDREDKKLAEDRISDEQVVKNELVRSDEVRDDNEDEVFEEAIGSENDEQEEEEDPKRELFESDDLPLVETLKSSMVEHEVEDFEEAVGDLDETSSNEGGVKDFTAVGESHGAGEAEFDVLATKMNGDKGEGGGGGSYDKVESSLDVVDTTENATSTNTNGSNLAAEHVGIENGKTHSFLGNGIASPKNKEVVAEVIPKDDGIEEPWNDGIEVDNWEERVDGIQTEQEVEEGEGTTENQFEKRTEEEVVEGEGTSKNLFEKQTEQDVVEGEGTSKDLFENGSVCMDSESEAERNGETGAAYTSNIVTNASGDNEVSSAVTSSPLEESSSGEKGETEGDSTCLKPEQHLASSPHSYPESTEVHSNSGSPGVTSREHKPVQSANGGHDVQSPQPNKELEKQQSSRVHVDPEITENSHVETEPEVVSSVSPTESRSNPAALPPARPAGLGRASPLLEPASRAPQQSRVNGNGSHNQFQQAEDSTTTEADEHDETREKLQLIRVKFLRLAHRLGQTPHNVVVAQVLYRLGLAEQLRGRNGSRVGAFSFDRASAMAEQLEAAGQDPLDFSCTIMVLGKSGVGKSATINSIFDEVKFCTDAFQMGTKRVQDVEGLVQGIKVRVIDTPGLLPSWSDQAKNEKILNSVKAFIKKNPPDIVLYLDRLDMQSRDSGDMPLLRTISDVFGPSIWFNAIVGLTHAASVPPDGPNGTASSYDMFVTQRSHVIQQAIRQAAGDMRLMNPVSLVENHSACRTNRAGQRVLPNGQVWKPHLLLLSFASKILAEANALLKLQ
For assay [3], the target named is atToc132 G-domain bait (Arabidopsis thaliana) (UniProt Q9SLF3). Described as above.
Chain of atToc132 G-domain bait (Arabidopsis thaliana) (Q9SLF3 456-794): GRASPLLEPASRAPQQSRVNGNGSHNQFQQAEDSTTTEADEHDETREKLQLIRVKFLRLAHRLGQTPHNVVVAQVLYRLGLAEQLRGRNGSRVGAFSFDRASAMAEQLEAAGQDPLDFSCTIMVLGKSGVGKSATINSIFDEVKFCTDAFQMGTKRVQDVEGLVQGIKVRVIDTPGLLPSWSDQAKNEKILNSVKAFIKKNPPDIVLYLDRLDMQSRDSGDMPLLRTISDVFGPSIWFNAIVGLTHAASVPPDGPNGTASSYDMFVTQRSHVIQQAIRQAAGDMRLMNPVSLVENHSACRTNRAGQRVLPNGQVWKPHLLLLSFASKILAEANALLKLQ
The target in assay [4] is T1, FNR1(TP)-DHFRHis (Arabidopsis thaliana | not stated).
T1 sequence (Q9FKW6 whole entry, looked up): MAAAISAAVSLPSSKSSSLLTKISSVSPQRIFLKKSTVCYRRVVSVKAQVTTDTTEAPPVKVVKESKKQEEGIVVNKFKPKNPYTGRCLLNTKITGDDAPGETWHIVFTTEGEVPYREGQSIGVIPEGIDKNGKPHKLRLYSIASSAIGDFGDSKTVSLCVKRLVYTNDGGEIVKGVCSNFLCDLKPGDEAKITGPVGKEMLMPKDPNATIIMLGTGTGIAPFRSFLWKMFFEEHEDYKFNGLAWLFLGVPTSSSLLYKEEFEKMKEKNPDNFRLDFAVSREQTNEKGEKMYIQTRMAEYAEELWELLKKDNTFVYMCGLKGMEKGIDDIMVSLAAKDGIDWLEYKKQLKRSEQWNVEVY
Nature of the assay: pull-down; solid phase binding assay: His-tagged TP-DHFR or DHFR immobilised on Ni-NTA resin (up to 800 pmol), incubated with 35S-labelled in vitro translated receptor, 25°C, 30 min, 50 mM Hepes-KOH pH 7.5, 5 mM MgCl2, 40 mM KOAc, 0.1% Triton X-100, 40 mM imidazole, 0.1 mM GTP; phosphorimager.

The target in assay [5] is T2, LHCA4(TP)-DHFRHis (Arabidopsis thaliana | not stated).
T2 sequence (P27521 whole entry, looked up): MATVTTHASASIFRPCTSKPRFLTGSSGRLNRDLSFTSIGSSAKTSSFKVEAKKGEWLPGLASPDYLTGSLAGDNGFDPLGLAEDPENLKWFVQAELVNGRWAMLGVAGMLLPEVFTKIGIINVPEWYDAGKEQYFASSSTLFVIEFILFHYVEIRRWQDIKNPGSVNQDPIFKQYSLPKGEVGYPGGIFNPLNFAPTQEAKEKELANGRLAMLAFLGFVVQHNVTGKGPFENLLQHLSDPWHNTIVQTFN
The assay is described as above.

Chain of atToc159 G-domain bait (Arabidopsis thaliana) (O81283 728-1092): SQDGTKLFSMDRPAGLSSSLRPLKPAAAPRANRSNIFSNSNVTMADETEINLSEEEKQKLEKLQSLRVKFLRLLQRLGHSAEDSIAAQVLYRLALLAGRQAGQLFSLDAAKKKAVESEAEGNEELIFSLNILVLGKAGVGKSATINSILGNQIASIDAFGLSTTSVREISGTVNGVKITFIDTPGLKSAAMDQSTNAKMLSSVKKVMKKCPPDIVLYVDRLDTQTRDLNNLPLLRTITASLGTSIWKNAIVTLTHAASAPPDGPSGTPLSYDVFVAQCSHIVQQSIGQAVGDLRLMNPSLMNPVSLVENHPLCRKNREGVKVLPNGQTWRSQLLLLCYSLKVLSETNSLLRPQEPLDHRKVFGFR
Chain of [35S]atToc159AG (O81283 1-1092): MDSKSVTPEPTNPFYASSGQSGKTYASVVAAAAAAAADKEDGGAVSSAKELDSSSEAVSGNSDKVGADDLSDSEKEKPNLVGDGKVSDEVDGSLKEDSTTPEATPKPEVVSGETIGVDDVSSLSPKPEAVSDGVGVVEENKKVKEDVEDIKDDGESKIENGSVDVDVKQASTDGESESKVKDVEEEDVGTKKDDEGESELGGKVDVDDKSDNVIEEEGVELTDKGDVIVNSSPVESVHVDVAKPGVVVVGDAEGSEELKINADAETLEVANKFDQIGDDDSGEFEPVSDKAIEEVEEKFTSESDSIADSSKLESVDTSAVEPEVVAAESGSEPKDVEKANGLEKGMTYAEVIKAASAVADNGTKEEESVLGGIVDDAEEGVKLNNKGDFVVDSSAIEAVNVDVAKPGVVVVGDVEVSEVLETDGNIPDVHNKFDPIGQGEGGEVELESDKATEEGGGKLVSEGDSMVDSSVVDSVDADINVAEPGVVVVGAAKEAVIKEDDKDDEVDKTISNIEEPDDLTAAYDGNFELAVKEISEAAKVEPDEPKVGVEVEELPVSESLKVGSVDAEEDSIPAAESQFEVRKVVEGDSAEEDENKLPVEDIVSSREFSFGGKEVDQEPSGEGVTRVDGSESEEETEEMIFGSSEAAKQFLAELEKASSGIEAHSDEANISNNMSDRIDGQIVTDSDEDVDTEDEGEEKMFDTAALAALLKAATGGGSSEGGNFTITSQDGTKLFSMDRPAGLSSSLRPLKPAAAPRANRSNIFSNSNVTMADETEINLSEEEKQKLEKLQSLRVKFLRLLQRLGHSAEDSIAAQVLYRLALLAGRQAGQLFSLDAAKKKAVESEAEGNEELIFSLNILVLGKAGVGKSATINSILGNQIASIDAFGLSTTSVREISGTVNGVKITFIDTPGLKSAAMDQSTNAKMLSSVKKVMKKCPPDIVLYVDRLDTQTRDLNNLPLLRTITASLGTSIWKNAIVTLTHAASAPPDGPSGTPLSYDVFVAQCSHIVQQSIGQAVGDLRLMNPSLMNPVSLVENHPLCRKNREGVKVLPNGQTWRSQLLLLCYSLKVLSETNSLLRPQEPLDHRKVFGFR
Chain of [35S]atToc132AG (Q9SLF3 1-794): as the sequence (Q9SLF3 1-794) above
Chain of Photosystem I light harvesting complex gene 1 (Q01667 whole entry, one chain of several): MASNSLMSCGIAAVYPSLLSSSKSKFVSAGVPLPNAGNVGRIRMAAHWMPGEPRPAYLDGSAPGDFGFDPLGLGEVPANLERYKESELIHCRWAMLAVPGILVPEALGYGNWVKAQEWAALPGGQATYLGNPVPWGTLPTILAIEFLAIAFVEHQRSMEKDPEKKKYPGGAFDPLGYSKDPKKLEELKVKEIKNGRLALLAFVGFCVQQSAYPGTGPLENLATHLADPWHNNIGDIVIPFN
Chain of Photosystem I subunit L (Q9SUI4 whole entry): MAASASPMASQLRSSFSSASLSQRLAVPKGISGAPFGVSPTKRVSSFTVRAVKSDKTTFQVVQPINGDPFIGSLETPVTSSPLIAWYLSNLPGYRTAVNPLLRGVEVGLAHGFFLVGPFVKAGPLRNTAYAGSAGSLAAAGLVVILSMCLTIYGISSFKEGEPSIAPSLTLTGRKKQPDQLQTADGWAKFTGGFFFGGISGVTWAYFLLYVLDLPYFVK
Chain of Photosystem I subunit D-1 (Q9S7H1 whole entry): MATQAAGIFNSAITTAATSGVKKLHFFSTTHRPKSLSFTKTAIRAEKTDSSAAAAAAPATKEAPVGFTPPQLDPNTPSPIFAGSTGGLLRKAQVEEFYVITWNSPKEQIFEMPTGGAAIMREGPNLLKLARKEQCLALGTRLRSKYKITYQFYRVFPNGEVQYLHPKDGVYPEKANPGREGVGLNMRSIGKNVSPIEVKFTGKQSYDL
Chain of Photosystem II Subunit P-1 (Q42029 whole entry): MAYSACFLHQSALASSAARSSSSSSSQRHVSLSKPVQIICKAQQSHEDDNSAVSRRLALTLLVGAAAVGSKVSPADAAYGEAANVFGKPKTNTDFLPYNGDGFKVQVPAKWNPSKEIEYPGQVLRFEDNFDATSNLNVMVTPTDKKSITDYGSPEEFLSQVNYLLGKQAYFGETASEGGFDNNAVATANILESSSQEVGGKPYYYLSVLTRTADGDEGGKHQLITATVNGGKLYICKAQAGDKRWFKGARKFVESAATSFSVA
Chain of ATP carrier protein 1 (P31167 whole entry): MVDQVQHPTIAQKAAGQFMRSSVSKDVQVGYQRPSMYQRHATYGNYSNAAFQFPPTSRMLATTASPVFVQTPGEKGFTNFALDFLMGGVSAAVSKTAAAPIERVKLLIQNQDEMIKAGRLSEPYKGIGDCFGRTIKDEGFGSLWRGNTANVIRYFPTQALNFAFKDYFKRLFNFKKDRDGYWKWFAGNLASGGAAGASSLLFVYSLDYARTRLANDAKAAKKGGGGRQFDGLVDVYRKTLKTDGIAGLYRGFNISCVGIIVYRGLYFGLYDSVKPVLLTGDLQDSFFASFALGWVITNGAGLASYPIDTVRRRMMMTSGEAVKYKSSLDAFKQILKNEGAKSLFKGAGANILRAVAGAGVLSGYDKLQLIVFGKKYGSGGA
Chain of THI1 -involved in thiamine synthesis (vitamin B) (Q38814 whole entry): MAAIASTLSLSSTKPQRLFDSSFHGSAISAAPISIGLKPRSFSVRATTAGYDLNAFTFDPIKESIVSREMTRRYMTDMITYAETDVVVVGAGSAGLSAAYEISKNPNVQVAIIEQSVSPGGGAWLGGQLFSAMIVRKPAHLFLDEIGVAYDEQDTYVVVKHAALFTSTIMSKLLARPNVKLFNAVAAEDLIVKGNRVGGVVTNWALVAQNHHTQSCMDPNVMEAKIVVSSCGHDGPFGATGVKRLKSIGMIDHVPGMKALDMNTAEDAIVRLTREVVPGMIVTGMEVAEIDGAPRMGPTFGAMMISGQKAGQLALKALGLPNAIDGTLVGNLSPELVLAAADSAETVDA

In the case of “Photosystem II 5 kD protein (natural protein)”, in assay [1], the % decrease in strength of interaction (β-Gal) with Toc159G against Toc132G was -26.1%.

For “Plastidial Dihydrolipoamide Acetyltransferase (from UniProt Q9C8P0 1-465) (natural protein)”, the % increase in strength of interaction (β-Gal) with Toc132AG against Toc132G in assay [2] was 33.6%.

Consider “ThiaminC (from UniProt O82392 1-644) (natural protein)”, for which, in assay [3], the relative β-Gal activity with 132G bait, % higher than with 159G bait was determined as 25.3%. Also, the % increase in strength of interaction (β-Gal) with Toc132AG against Toc132G in assay [2] is 60.6%.

On to “ATP carrier protein 1 (from UniProt P31167 1-381) (natural protein)”, for which the % increase in strength of interaction (β-Gal) with 132G against 159G in assay [3] is 50.6%.

In assay [3], “ATPase, F0 complex, subunit B/B’ (from UniProt Q42139 1-219) (natural protein)” displayed a % increase in strength of interaction (β-Gal) with 132G against 159G of 16.5%.

For the substance “Glucose-6-phosphate transmembrane transporter (from UniProt Q9M5A9 1-388) (natural protein)”, the % increase in strength of interaction (β-Gal) with Toc132AG against Toc132G in assay [2] was determined as 55.2%.

On to “Rhomboid-Like Protein 11 (from UniProt Q84MB5 1-280) (natural protein)”, for which the % increase in strength of interaction (β-Gal) with Toc132AG against Toc132G in assay [2] is 98%.

Turning to “[35S]atToc159AG (from UniProt O81283 1-1092) (domain or fragment)”, the percent bound at 800 pmol FNR1(TP)-DHFR in assay [4] was 51.9%. The percent bound at 800 pmol LHCA4(TP)-DHFR in assay [5] turned out to be 38.2%.

For the substance “Membrane-associated progesterone binding protein 3 (from UniProt Q9M2Z4 1-233) (natural protein)”, in assay [3], the relative β-Gal activity with 132G bait, % higher than with 159G bait was 77.5%. Besides, the % increase in strength of interaction (β-Gal) with Toc132AG against Toc132G in assay [2] was 115%.

In assay [1], “Photosystem I light harvesting complex gene 1 (from UniProt Q01667 1-241) (natural protein)” came in with a % increase in strength of interaction (β-Gal) with Toc159G against Toc132G of 11.3%.

As to “Acyl Carrier Protein 2 (from UniProt P25701 1-136) (natural protein)”, the % increase in strength of interaction (β-Gal) with Toc132AG against Toc132G in assay [2] turned out to be 62.2%.

Turning to “THI1 -involved in thiamine synthesis (vitamin B) (from UniProt Q38814 1-349) (natural protein)”, the % increase in strength of interaction (β-Gal) with 132G against 159G in assay [3] amounted to 52%.

Take “Lipid-transfer protein (natural protein)”: the % increase in strength of interaction (β-Gal) with 132G against 159G in assay [3] came out at 38.1%.

Take “[35S]atToc132AG (from UniProt Q9SLF3 1-794) (domain or fragment)”: the percent bound at 800 pmol FNR1(TP)-DHFR in assay [4] worked out at 8.7%. The same substance returned a percent bound at 800 pmol LHCA4(TP)-DHFR in assay [5] of 15%.

As to “Photosystem I reaction centre subunit IV (from UniProt Q9S831 1-143) (natural protein)”, the % decrease in strength of interaction (β-Gal) with Toc159G against Toc132G in assay [1] is -27.1%.

Regarding “Photosystem I P Subunit (from UniProt Q8LCA1 1-174) (natural protein)”, the % decrease in strength of interaction (β-Gal) with Toc159G against Toc132G in assay [1] is -28.2%.

In the case of “Thioredoxin M-Type 4 (from UniProt Q9SEU6 1-193) (natural protein)”, the relative β-Gal activity with 132G bait, % higher than with 159G bait in assay [3] was determined as 25%. The % increase in strength of interaction (β-Gal) with Toc132AG against Toc132G in assay [2] turned out to be 93.8%.

Turning to “Photosystem II Subunit S (from UniProt Q9XF91 1-265) (natural protein)”, the % decrease in strength of interaction (β-Gal) with Toc159G against Toc132G in assay [1] was -11.9%.

Take “Photosystem I subunit D-1 (from UniProt Q9S7H1 1-208) (natural protein)”: the % decrease in strength of interaction (β-Gal) with Toc159G against Toc132G in assay [1] was -12.2%.

Consider “Copper Chaperone (from UniProt O82089 1-121) (natural protein)”, for which the relative β-Gal activity with 132G bait, % lower than with 159G bait in assay [3] was 27%. In addition, the % increase in strength of interaction (β-Gal) with Toc132AG against Toc132G in assay [2] stood at 285%.

For the substance “Photosystem I subunit E-2 (from UniProt Q9S714 1-145) (natural protein)”, the % increase in strength of interaction (β-Gal) with Toc159G against Toc132G in assay [1] came out at 14.4%. Further, the % reduction in strength of interaction (β-Gal) with Toc132AG against Toc132G in assay [2] was determined as 50%.

Regarding “Light-Harvesting Chlorophyll B-Binding Protein 3 (from UniProt Q9S7M0 1-265) (natural protein)”, the % decrease in strength of interaction (β-Gal) with Toc159G against Toc132G in assay [1] is -5.52%.

Turning to “Chaperonin 60 Beta (from UniProt P21240 1-600) (natural protein)”, in assay [2], the % increase in strength of interaction (β-Gal) with Toc132AG against Toc132G was determined as 55.8%.

Turning to “PGR5-Like A (from UniProt Q8H112 1-324) (natural protein)”, the % increase in strength of interaction (β-Gal) with Toc159G against Toc132G in assay [1] was determined as 13%.

In the case of “Photosystem II Subunit P-1 (from UniProt Q42029 1-263) (natural protein)”, in assay [1], the % decrease in strength of interaction (β-Gal) with Toc159G against Toc132G was -6.7%.

As to “Photosystem I subunit L (from UniProt Q9SUI4 1-219) (natural protein)”, in assay [1], the % decrease in strength of interaction (β-Gal) with Toc159G against Toc132G is -26.8%.

As to “Light-harvesting chlorophyll-protein complex II subunit B1 (natural protein)”, in assay [1], the % increase in strength of interaction (β-Gal) with Toc159G against Toc132G came to 26.4%. Further, in assay [2], the relative strength of interaction (β-Gal) with Toc132AG against Toc132G, % change was -25.9%.

As for “Plastocyanin 2 (from UniProt P42699 1-167) (natural protein)”, the % decrease in strength of interaction (β-Gal) with Toc159G against Toc132G in assay [1] was -29.6%.
